Results on 37 molecules are retold here after article doi:10.1101/2022.03.02.482667 (bioRxiv, 2022).

Where no end group is shown, it is not given here. Ahx = NCCCCCC(=O)O

Sequence of G3BP1 NTF2 (1-139) TripleW (F15W/F33W/F124W) (Q13283 1-139 F15W/F33W/F124W): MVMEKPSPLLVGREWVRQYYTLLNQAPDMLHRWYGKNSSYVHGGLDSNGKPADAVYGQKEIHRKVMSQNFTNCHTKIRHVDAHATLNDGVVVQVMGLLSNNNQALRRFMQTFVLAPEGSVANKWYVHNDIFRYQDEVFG
Sequence of G3BP1 NTF2 (1-139) F15/124W (Q13283 1-139 F15W/F124W): as the sequence (Q13283 1-139 F15W/F33W/F124W) above, with W33F counted along it
Sequence of G3BP1 NTF2 (1-139) S38G (Q13283 1-139 S38G): as the sequence (Q13283 1-139 F15W/F33W/F124W) above, with W15F, W33F, S38G, W124F counted along it
Sequence of G3BP1 NTF2 (1-139) S38A (Q13283 1-139 S38A): as the sequence (Q13283 1-139 F15W/F33W/F124W) above, with W15F, W33F, S38A, W124F counted along it
Sequence of G3BP1 NTF2 (1-139) F33/124W (Q13283 1-139 F33W/F124W): as the sequence (Q13283 1-139 F15W/F33W/F124W) above, with W15F counted along it
Sequence of G3BP1 NTF2 (1-139) F15/33W (Q13283 1-139 F15W/F33W): as the sequence (Q13283 1-139 F15W/F33W/F124W) above, with W124F counted along it
Sequence of G3BP1 NTF2 domain (residues 1-139) WT (Q13283 1-139): as the sequence (Q13283 1-139 F15W/F33W/F124W) above, with W15F, W33F, W124F counted along it

The target of one test is T1, His-tagged G3BP1 NTF2 (human, UniProt Q13283 1-139). The experiment in a line: peptide or protein array.
T1 sequence (Q13283 1-139): as the sequence (Q13283 1-139 F15W/F33W/F124W) above, with W15F, W33F, W124F counted along it
Turning to HSPQYIIGDFSPDEFNQFFV [USP10 array peptide F10I], the binding result is “binds”.
HSPQYIFGDLSPDEFNQFFV [USP10 array peptide F13L]: the binding result was “binds”.
As for HSPQYIFGDVSPDEFNQFFV [USP10 array peptide F13V], the binding result is “binds”.
For HSPQYIFGDWSPDEFNQFFV [USP10 array peptide F13W], the binding result is recorded as “binds”.
Take HSPQYIFGDFSPDEFNQFFV [native USP10 array peptide HSPQYIFGDFSPDEFNQFFV]: the binding result is given as “binds”.
The same measure, in the same setting: the same measure for HSPQYILGDFSPDEFNQFFV [USP10 array peptide F10L]: “binds”.
With HSPQYIVGDFSPDEFNQFFV [USP10 array peptide F10V], the binding result is on record as “binds”.
As for HSPQYIFADFSPDEFNQFFV [USP10 array peptide G11A], the binding result was “binds”.
Same read-out and setting: the same measure for HSPQYIFGDISPDEFNQFFV [USP10 array peptide F13I]: “binds”; for HSPQYIYGDFSPDEFNQFFV [USP10 array peptide F10Y]: “binds”.
Regarding HSPQYIFGDYSPDEFNQFFV [USP10 array peptide F13Y], the binding result is listed as “binds”.

The target in another test is T1, His-tagged G3BP1 NTF2. Put plainly: peptide or protein array. This is another data set of the same source.
Take QGPYRFIQDSMLDFENQTLD [Caprin1 array peptide N371R]: the binding result is listed as “binds”.
Consider QGPYNFIQESMLDFENQTLD [Caprin1 array peptide D375E], for which the binding result is “binds”.
Regarding QGPYEFIQDSMLDFENQTLD [Caprin1 array peptide N371E], the binding result is “binds”.
As for QGPYDFIQDSMLDFENQTLD [Caprin1 array peptide N371D], the binding result is on record as “binds”.
Same read-out and setting: the same measure for QGPYNFIQDSMIDFENQTLD [Caprin1 array peptide L378I]: “binds”; for QGPYMFIQDSMLDFENQTLD [Caprin1 array peptide N371M]: “binds”; for QGPYWFIQDSMLDFENQTLD [Caprin1 array peptide N371W]: “binds”.
In the case of QGPYNFLQDSMLDFENQTLD [Caprin1 array peptide I373L], the binding result is recorded as “binds”.
On the same count and under the same terms, the same measure for QGPYYFIQDSMLDFENQTLD [Caprin1 array peptide N371Y]: “binds”; for QGPYKFIQDSMLDFENQTLD [Caprin1 array peptide N371K]: “binds”.
Same read-out and setting: the entry for QGPYSFIQDSMLDFENQTLD [Caprin1 array peptide N371S] is “binds”; for QGPYQFIQDSMLDFENQTLD [Caprin1 array peptide N371Q] it is “binds”; for QGPYIFIQDSMLDFENQTLD [Caprin1 array peptide N371I] it is “binds”.
Still for that read-out and setting: the same measure for QGPFNFIQDSMLDFENQTLD [Caprin1 array peptide Y370F]: “binds”.
As to QGPYTFIQDSMLDFENQTLD [Caprin1 array peptide N371T], the binding result is recorded as “binds”.
The same measure, in the same setting: the entry for QGPYNFIQDSYLDFENQTLD [Caprin1 array peptide M377Y] is “binds”; for QGPYNFFQDSMLDFENQTLD [Caprin1 array peptide I373F] it is “binds”; for QGPYLFIQDSMLDFENQTLD [Caprin1 array peptide N371L] it is “binds”.
For the molecule QGPYNFIQDSMLDFENQTLD [native Caprin1 array peptide QGPYNFIQDSMLDFENQTLD], the binding result was “binds”.
With QGPYHFIQDSMLDFENQTLD [Caprin1 array peptide N371H], the binding result is recorded as “binds”.
The same measure, in the same setting: the same measure for QGPYCFIQDSMLDFENQTLD [Caprin1 array peptide N371C]: “binds”; for QGPYNFIQDSFLDFENQTLD [Caprin1 array peptide M377F]: “binds”.
Regarding QGPYNFIQDCMLDFENQTLD [Caprin1 array peptide S376C], the binding result is “binds”.
Still for that read-out and setting: the entry for QGPYFFIQDSMLDFENQTLD [Caprin1 array peptide N371F] is “binds”; for QGPYVFIQDSMLDFENQTLD [Caprin1 array peptide N371V] it is “binds”.

The next test concerns the target G3BP1 NTF2 domain (residues 1-139) WT (human, UniProt Q13283 1-139). Put plainly: fluorescence polarisation.
The molecule {fluorescein-Ahx}-YNFIQDSMLDFE [Caprin1-derived dodecamer reporter peptide F*-YNFIQDSMLDFE] returned a dissociation constant Kd of 1.7 µM.

The next test addresses G3BP1 NTF2 (1-139) S38G (human, UniProt Q13283 1-139, S38G). The experiment in a line: fluorescence polarisation.
Consider {fluorescein-Ahx}-YNFIQDSMLDFE [Caprin1-derived dodecamer reporter peptide F*-YNFIQDSMLDFE], for which the binding result was “binds”.

In a further test the target is G3BP1 NTF2 (1-139) S38T (human, UniProt Q13283 1-139, S38T). The experiment in a line: fluorescence polarisation.
Sequence of G3BP1 NTF2 (1-139) S38T (Q13283 1-139 S38T): as the sequence (Q13283 1-139 F15W/F33W/F124W) above, with W15F, W33F, S38T, W124F counted along it
As to {fluorescein-Ahx}-YNFIQDSMLDFE [Caprin1-derived dodecamer reporter peptide F*-YNFIQDSMLDFE], the binding result is “binds”.

For a further test, the target named is G3BP1 NTF2 (1-139) F15W (human, UniProt Q13283 1-139, F15W). The experiment in a line: fluorescence polarisation.
Sequence of G3BP1 NTF2 (1-139) F15W (Q13283 1-139 F15W): as the sequence (Q13283 1-139 F15W/F33W/F124W) above, with W33F, W124F counted along it
Regarding {fluorescein-Ahx}-YNFIQDSMLDFE [Caprin1-derived dodecamer reporter peptide F*-YNFIQDSMLDFE], the affinity, expressed as Kd, was 9.3 µM.

The next test deals with G3BP1 NTF2 (1-139) F15/33W (human, UniProt Q13283 1-139, F15W | F33W). Put plainly: fluorescence polarisation.
On to {fluorescein-Ahx}-YNFIQDSMLDFE [Caprin1-derived dodecamer reporter peptide F*-YNFIQDSMLDFE], for which the binding result is “binds”.

A further test deals with G3BP1 NTF2 (1-139) F33/124W (human, UniProt Q13283 1-139, F33W | F124W). Put plainly: fluorescence polarisation.
Take {fluorescein-Ahx}-YNFIQDSMLDFE [Caprin1-derived dodecamer reporter peptide F*-YNFIQDSMLDFE]: the binding result was “binds”.

Another test addresses G3BP1 NTF2 (1-139) F15/124W (human, UniProt Q13283 1-139, F15W | F124W). Put plainly: fluorescence polarisation.
{fluorescein-Ahx}-YNFIQDSMLDFE [Caprin1-derived dodecamer reporter peptide F*-YNFIQDSMLDFE]: the binding result is reported as “binds”.

The next test addresses G3BP1 NTF2 (1-139) TripleW (F15W/F33W/F124W) (human, UniProt Q13283 1-139, F15W | F33W | F124W). The experiment in a line: fluorescence polarisation.
As for {fluorescein-Ahx}-YNFIQDSMLDFE [Caprin1-derived dodecamer reporter peptide F*-YNFIQDSMLDFE], the binding result is given as “binds”.

The next test addresses G3BP1 NTF2 (1-139) S38A (human, UniProt Q13283 1-139, S38A). The experiment in a line: fluorescence polarisation.
For the molecule {fluorescein-Ahx}-YNFIQDSMLDFE [Caprin1-derived dodecamer reporter peptide F*-YNFIQDSMLDFE], the binding result is recorded as “binds”.
